Reference: CN115746140A (SHENZHEN KANGTI BIOMEDICAL TECH CO LTD, dated 2023)

Molecular target: T1, PCSK9蛋白 (Proprotein convertase subtilisin kexin type 9) (UniProt Q8NBP7 31-692, limits assumed)
T1 construct: also called PCSK9抗原
Test: SPR; immobilised partner and format not stated

T1 sequence (Q8NBP7 31-692 limits assumed): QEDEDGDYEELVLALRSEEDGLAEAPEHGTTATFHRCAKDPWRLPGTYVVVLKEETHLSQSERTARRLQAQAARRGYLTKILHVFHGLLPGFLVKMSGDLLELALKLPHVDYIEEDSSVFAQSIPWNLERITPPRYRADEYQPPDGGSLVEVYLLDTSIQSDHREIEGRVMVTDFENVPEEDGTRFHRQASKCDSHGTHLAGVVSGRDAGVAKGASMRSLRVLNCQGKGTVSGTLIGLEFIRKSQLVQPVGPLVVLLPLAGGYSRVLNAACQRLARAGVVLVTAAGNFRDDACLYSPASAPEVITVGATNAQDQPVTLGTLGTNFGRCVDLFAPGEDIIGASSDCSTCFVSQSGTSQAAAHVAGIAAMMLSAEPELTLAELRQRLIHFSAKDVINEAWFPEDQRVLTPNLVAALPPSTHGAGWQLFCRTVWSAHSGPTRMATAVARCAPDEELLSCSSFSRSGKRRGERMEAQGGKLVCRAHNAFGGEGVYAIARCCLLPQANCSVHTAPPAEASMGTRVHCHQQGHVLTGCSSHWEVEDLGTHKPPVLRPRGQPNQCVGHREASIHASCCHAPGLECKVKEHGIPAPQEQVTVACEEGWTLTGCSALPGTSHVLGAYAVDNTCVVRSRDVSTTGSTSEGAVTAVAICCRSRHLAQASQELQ

Kd: 70 nM | koff: 0.00921 s⁻¹ | kon: 130000 M⁻¹ s⁻¹
B1: 纳米抗体P2-11D (anti-PCSK9 nanobody P2-11D) (VHH)
VHH: DVQLQESGGGLVQPGGSLRLSCAASGFTFRAYDMGWYRQAPGKQRDLVAVISSSGGTPNYADSVKDRFTISRDNDKNTVYLQMNSLKSEDTALYYCNARWESSAYERDYWGRGTQVTVSS
notes: Monovalent alpaca VHH, expressed from pET22b in E. coli BL21 and purified on Ni resin and by size exclusion; also called 抗PCSK9单域重链抗体; 抗PCSK9的纳米抗体
